The text below walks through data of PMC11372834.

The assay addresses human RXFP1 (human) (UniProt Q9HBX9).
UniProt Q9HBX9, sequence (Q9HBX9 whole entry): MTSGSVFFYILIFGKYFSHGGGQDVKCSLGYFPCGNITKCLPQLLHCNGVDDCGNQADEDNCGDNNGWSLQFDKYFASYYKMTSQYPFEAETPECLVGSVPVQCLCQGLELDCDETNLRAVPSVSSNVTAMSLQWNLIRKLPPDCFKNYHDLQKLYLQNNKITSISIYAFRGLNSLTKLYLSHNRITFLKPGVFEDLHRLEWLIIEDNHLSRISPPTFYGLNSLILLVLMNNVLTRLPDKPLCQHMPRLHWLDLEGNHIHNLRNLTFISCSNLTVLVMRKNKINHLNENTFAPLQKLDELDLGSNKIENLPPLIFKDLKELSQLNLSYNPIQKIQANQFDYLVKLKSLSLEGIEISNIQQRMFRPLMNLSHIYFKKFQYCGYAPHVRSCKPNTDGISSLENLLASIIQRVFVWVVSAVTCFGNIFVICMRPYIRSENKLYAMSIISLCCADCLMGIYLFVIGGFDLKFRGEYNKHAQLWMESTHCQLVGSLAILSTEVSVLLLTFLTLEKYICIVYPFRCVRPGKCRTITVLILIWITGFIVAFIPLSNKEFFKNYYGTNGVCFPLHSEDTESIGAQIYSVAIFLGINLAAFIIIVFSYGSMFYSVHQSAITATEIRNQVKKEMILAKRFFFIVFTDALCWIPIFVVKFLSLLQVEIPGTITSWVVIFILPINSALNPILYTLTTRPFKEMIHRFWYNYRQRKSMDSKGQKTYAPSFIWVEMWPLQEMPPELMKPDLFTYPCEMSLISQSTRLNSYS

For the substance native relaxin-2 (ligand), the EC50, Gs signaling (CRE-SEAP, Figure 1c and Table S1) came to 0.1 nM.
